Reference: IntAct's records for PubMed 39009827

B1: BRCA1-A complex subunit Abraxas 1 (Homo sapiens), Q6UWZ7 (parent)
chain: MEGESTSAVLSGFVLGALAFQHLNTDSDTEGFLLGEVKGEAKNSITDSQMDDVEVVYTIDIQKYIPCYQLFSFYNSSGEVNEQALKKILSNVKKNVVGWYKFRRHSDQIMTFRERLLHKNLQEHFSNQDLVFLLLTPSIITESCSTHRLEHSLYKPQKGLFHRVPLVVANLGMSEQLGYKTVSGSCMSTGFSRAVQTHSSKFFEEDGSLKEVHKINEMYASLQEELKSICKKVEDSEQAVDKLVKDVNRLKREIEKRRGAQIQAAREKNIQKDPQENIFLCQALRTFFPNSEFLHSCVMSLKNRHVSKSSCNYNHHLDVVDNLTLMVEHTDIPEASPASTPQIIKHKALDLDDRWQFKRSRLLDTQDKRSKADTGSSNQDKASKMSSPETDEEIEKMKGFGEYSRSPTF
B2: Zinc finger protein 526 (Homo sapiens), Q8TF50 (parent)
chain: MAEVVAEVAEMPTQMSPGAVEMSTPMSAEMMEMSTEVTEMTPGEALASSLFFQHHQFMCSECGSLYNTLEEVLSHQEQHMLAVSEEEALTTQNVGLEPELVPGAEGPFQCGECSQLILSPGELLAHQDAHLRESANQIQYQCWDCQELFPSPELWVAHRKAQHLSATVAEPPVPPPLPPPTPLPPPSPPSEVKMEPYECPECSTLCATPEEFLEHQGTHFDSLEKEERNGLEEEEEDDEEDEEDDEEMEDEEAMAEVGDDAVGGDESTAGWAQGCGDCPQHQPSAGARRQHRRTAHSPASATHPFHCSQCQRSFSSANRLQAHGRAHVGGTHECTTCSKVFKKAASLEQHLRLHRGEARYLCVDCGRGFGTELTLVAHRRAHTANPLHRCRCGKTFSNMTKFLYHRRTHAGKSGAPPTGATAPPAPAEPTPPPPPPAPPAQLPCPQCSKSFASASRLSRHRRAVHGPPERRHRCGVCGKGFKKLIHVRNHLRTHTGERPFQCHSCGKTFASLANLSRHQLTHTGARPYQCLDCGKRFTQSSNLQQHRRLHLRPVAFARAPRLPITGLYNKSPYYCGTCGRWFRAMAGLRLHQRVHARARTLTLQPPRSPSPAPPPPPEPQQTIMCTELGETIAIIETSQPLALEDTLQLCQAALGASEAGGLLQLDTAFV
B3: Tyrosine-protein phosphatase non-receptor type 22 (Homo sapiens), Q9Y2R2 (parent)
chain: MDQREILQKFLDEAQSKKITKEEFANEFLKLKRQSTKYKADKTYPTTVAEKPKNIKKNRYKDILPYDYSRVELSLITSDEDSSYINANFIKGVYGPKAYIATQGPLSTTLLDFWRMIWEYSVLIIVMACMEYEMGKKKCERYWAEPGEMQLEFGPFSVSCEAEKRKSDYIIRTLKVKFNSETRTIYQFHYKNWPDHDVPSSIDPILELIWDVRCYQEDDSVPICIHCSAGCGRTGVICAIDYTWMLLKDGIIPENFSVFSLIREMRTQRPSLVQTQEQYELVYNAVLELFKRQMDVIRDKHSGTESQAKHCIPEKNHTLQADSYSPNLPKSTTKAAKMMNQQRTKMEIKESSSFDFRTSEISAKEELVLHPAKSSTSFDFLELNYSFDKNADTTMKWQTKAFPIVGEPLQKHQSLDLGSLLFEGCSNSKPVNAAGRYFNSKVPITRTKSTPFELIQQRETKEVDSKENFSYLESQPHDSCFVEMQAQKVMHVSSAELNYSLPYDSKHQIRNASNVKHHDSSALGVYSYIPLVENPYFSSWPPSGTSSKMSLDLPEKQDGTVFPSSLLPTSSTSLFSYYNSHDSLSLNSPTNISSLLNQESAVLATAPRIDDEIPPPLPVRTPESFIVVEEAGEFSPNVPKSLSSAVKVKIGTSLEWGGTSEPKKFDDSVILRPSKSVKLRSPKSELHQDRSSPPPPLPERTLESFFLADEDCMQAQSIETYSTSYPDTMENSTSSKQTLKTPGKSFTRSKSLKILRNMKKSICNSCPPNKPAESVQSNNSSSFLNFGFANRFSKPKGPRNPPPTWNI
B4: Zinc finger protein GLIS2 (Homo sapiens), Q9BZE0 (parent)
chain: MHSLDEPLDLKLSITKLRAAREKRERTLGVVRPRALHRELGLVDDSPTPGSPGSPPSGFLLNSKFPEKVEGRFSAAPLVDLSLSPPSGLDSPNGSSSLSPERQGNGDLPPVPSASDFQPLRYLDGVPSSFQFFLPLGSGGALHLPASSFLTPPKDKCLSPDLPLPKQLVCRWAKCNQLFELLQDLVDHVNDYHVKPEKDAGYCCHWEGCARHGRGFNARYKMLIHIRTHTNEKPHRCPTCSKSFSRLENLKIHNRSHTGEKPYVCPYEGCNKRYSNSSDRFKHTRTHYVDKPYYCKMPGCHKRYTDPSSLRKHIKAHGHFVSHEQQELLQLRPPPKPPLPAPDGGPYVSGAQIIIPNPAALFGGPGLPGLPLPLAPGPLDLSALACGNGGGSGGGGGMGPGLPGPVLPLNLAKNPLLPSPFGAGGLGLPVVSLLAGAAGGKAEGEKGRGSVPTRALGMEGHKTPLERTESSCSRPSPDGLPLLPGTVLDLSTGVNSAASSPEALAPGWVVIPPGSVLLKPAVVN
B5: Radial spoke head protein 4 homolog A (Homo sapiens), Q5TD94 (parent)
chain: MEDSTSPKQEKENQEELGETRRPWEGKTAASPQYSEPESSEPLEAKQGPETGRQSRSSRPWSPQSRAKTPLGGPAGPETSSPAPVSPREPSSSPSPLAPARQDLAAPPQSDRTTSVIPEAGTPYPDPLEQSSDKRESTPHHTSQSEGNTFQQSQQPKPHLCGRRDVSYNNAKQKELRFDVFQEEDSNSDYDLQQPAPGGSEVAPSMLEITIQNAKAYLLKTSSNSGFNLYDHLSNMLTKILNERPENAVDIFENISQDVKMAHFSKKFDALQNENELLPTYEIAEKQKALFLQGHLEGVDQELEDEIAENALPNVMESAFYFEQAGVGLGTDETYRIFLALKQLTDTHPIQRCRFWGKILGLEMNYIVAEVEFREGEDEEEVEEEDVAEERDNGESEAHEDEEDELPKSFYKAPQAIPKEESRTGANKYVYFVCNEPGRPWVKLPPVIPAQIVIARKIKKFFTGRLDAPIISYPPFPGNESNYLRAQIARISAGTHVSPLGFYQFGEEEGEEEEEAEGGRNSFEENPDFEGIQVIDLVESLSNWVHHVQHILSQGRCNWFNSIQKNEEEEEEEDEEKDDSDYIEQEVGLPLLTPISEDLEIQNIPPWTTRLSSNLIPQYAIAVLQSNLWPGAYAFSNGKKFENFYIGWGHKYSPDNYTPPVPPPVYQEYPSGPEITEMDDPSVEEEQAFRAAQEAVLLAAENEESEEDEDEEDDYD

Variants of: B1
Conditions: with ima3_human KPNA4, O00629
Target sequence in this assay (O00629 whole entry): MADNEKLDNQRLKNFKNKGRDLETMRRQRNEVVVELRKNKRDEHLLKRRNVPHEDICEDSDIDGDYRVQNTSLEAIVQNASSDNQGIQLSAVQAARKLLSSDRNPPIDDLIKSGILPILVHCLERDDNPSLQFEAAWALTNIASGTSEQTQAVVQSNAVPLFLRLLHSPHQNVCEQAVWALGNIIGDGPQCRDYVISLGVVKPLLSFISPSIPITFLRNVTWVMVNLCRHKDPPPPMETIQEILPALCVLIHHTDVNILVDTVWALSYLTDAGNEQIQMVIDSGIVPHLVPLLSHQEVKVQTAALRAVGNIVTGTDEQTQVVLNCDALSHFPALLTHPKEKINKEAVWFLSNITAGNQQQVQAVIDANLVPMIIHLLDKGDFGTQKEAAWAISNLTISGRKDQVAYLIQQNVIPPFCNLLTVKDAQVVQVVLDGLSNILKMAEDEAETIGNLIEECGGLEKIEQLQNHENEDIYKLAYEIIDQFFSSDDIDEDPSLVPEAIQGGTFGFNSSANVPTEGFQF
For MEGESTSAVLSGFVLGALAFQHLNTDSDTEGFLLGEVKGEAKNSITDSQMDDVEVVYTIDIQKYIPCYQLFSFYNSSGEVNEQALKKILSNVKKNVVGWYKFRRHSDQIMTFRERLLHKNLQEHFSNQDLVFLLLTPSIITESCSTHRLEHSLYKPQKGLFHRVPLVVANLGMSEQLGYKTVSGSCMSTGFSRAVQTHSSKFFEEDGSLKEVHKINEMYASLQEELKSICKKVEDSEQAVDKLVKDVNRLKREIEKRRGAQIQAAREKNIQKDPQENIFLCQALRTFFPNSEFLHSCVMSLKNRHVSKSSCNYNHHLDVVDNLTLMVEHTDIPEASPASTPQIIKHKALDLDDRWQFKRSQLLDTQDKRSKADTGSSNQDKASKMSSPETDEEIEKMKGFGEYSRSPTF [R361Q], the “effect of a mutation on the interaction” value was “decreasing interaction strength”.

Variants of: B2
Conditions: with ima3_human KPNA4, O00629
Target sequence in this assay (O00629 whole entry): as the sequence (O00629 whole entry) above
With K160T the “effect of a mutation on the interaction” value was “disrupting interaction strength”.

Variants of: B2
Conditions: with ima3_human KPNA4, O00629
Remark: another data set of the same source
Target sequence in this assay (O00629 whole entry): as the sequence (O00629 whole entry) above
With K160T the “effect of a mutation on the interaction” value was “decreasing interaction strength”.

Variants of: B3
Conditions: with itsn1_human ITSN1, Q15811
Chain of itsn1_human ITSN1, Q15811 (Q15811 whole entry): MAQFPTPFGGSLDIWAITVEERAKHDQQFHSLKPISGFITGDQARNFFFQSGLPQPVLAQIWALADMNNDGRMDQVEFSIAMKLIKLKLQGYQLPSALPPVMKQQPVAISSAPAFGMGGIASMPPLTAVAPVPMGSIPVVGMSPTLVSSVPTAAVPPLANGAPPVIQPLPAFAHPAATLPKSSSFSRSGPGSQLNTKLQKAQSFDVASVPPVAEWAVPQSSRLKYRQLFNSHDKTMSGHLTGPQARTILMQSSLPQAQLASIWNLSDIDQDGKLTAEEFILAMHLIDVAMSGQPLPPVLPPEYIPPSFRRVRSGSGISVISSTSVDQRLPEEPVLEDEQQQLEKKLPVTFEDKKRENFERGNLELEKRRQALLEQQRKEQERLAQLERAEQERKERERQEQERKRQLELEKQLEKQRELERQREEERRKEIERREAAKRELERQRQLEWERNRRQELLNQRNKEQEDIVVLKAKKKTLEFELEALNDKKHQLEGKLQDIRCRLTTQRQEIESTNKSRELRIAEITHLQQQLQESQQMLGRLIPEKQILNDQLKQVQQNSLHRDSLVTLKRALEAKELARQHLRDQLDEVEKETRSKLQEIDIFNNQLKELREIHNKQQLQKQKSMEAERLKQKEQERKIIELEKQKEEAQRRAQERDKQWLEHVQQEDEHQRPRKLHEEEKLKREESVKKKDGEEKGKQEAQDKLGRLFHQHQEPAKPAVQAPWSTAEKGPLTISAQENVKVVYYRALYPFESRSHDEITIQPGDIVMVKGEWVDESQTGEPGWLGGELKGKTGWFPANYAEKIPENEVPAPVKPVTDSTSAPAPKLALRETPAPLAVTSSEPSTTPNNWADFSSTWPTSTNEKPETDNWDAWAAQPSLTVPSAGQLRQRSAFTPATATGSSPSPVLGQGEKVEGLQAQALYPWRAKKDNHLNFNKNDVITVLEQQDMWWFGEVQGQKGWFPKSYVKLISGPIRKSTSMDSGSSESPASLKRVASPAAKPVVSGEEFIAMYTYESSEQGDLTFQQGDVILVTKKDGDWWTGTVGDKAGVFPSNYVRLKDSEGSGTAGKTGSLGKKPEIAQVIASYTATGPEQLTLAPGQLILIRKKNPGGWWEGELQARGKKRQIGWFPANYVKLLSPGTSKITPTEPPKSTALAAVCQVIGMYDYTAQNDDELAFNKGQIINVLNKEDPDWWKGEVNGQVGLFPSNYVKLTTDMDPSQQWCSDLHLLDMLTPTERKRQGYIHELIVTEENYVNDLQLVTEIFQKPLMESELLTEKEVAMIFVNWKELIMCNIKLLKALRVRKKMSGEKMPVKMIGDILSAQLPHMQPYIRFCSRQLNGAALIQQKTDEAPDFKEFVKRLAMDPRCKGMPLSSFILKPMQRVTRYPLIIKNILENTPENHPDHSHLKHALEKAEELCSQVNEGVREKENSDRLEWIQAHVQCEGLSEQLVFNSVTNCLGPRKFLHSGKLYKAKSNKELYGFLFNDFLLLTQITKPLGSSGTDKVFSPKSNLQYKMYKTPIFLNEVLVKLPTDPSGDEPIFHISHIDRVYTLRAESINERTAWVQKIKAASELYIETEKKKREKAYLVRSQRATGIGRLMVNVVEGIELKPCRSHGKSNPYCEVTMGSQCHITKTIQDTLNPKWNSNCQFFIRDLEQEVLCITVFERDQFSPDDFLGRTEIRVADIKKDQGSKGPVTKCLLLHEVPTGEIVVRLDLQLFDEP
With R620W the “effect of a mutation on the interaction” value was “decreasing interaction strength”.

Variants of: B4
Conditions: with ptbp1_human PTBP1, P26599
Chain of ptbp1_human PTBP1, P26599 (P26599 whole entry): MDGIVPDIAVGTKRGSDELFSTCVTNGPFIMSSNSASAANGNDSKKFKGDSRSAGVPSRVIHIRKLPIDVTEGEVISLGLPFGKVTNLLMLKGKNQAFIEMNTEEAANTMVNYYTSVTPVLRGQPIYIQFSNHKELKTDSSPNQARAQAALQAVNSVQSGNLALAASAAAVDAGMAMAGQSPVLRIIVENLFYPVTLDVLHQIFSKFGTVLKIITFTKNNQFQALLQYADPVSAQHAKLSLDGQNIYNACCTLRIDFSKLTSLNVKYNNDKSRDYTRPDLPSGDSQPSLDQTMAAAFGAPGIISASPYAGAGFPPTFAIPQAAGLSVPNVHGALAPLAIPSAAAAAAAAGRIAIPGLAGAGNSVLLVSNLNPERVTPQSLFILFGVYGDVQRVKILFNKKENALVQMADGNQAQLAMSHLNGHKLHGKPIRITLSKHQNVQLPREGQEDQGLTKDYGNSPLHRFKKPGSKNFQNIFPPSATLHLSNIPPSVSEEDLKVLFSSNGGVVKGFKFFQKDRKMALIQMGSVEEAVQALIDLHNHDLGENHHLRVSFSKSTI
For MHSLDEPLDLKLSITKLRAAREKRERTLGVVRPRALHRELGLVDDSPTPGSPGSPPSGFLLNSKFPEKVEGRFSAAPLVDLSLSPPSGLDSPNGSSSLSPERQGNGDLPPVPSASDFQPLRYLDGVPSSFQFFLPLGSGGALHLPASSFLTPPKDKCLSPDLPLPKQLVCRWAKCNQLFELLQDLVDHVNDYHVKPEKDAGYCCHWEGCARHGRGFNARYKMLIHIRTHTNEKPHRCPTCSKSFSRLENLKIHNRSHTGEKPYVCPYEGCNKRYSNSSDRFKHTRTHYVDKPYYCKMPGCHKRYTDPSSLRKHIKAHGHFVSHEQQELLQLRPPPKPPLPAPDGGPYVSGAQIIIPNPAALFGGPGLPGLPLPLAPGPLDLSALACGNGGGSGGGGGMGPGLPGPVLPLNLAKNPLLPSLFGAGGLGLPVVSLLAGAAGGKAEGEKGRGSVPTRALGMEGHKTPLERTESSCSRPSPDGLPLLPGTVLDLSTGVNSAASSPEALAPGWVVIPPGSVLLKPAVVN [P420L], the “effect of a mutation on the interaction” value was “decreasing interaction strength”.

Variants of: B5
Conditions: with nedd4_human NEDD4, P46934
Chain of nedd4_human NEDD4, P46934 (P46934 whole entry): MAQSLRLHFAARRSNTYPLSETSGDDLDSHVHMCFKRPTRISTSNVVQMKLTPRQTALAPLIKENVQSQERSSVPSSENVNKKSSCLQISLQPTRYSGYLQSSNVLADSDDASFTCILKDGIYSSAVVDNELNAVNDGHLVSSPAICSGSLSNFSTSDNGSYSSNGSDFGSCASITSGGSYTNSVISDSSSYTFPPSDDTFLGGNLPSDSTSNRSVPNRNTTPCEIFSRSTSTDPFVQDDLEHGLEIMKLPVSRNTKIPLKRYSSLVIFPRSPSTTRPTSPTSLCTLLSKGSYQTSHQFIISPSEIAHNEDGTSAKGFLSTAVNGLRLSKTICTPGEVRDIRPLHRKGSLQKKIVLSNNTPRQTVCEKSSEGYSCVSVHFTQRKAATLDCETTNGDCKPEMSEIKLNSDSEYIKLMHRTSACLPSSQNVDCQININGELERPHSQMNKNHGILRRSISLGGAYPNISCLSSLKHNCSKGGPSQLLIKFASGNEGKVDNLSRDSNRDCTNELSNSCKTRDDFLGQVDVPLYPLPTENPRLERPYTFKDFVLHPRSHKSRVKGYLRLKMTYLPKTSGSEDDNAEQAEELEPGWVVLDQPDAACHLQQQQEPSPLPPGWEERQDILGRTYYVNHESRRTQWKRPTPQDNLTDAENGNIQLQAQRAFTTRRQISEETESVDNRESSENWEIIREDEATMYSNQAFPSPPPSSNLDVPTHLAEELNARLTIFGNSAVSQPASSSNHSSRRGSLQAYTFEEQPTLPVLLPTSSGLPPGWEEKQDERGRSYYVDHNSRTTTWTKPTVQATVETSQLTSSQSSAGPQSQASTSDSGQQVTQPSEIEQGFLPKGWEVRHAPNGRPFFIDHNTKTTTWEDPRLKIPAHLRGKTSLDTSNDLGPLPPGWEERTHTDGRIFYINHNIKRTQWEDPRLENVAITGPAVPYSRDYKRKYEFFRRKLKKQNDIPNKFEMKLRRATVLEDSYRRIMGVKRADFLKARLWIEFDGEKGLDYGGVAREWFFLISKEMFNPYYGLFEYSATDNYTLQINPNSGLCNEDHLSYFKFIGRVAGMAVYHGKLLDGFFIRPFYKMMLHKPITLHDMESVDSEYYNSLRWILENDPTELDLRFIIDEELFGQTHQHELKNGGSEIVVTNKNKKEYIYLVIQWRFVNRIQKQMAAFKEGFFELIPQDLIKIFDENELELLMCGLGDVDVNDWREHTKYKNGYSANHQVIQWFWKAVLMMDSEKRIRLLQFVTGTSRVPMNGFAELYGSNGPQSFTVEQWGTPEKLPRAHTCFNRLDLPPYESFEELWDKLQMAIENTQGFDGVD
In the case of P664S, the “effect of a mutation on the interaction” value is reported as “decreasing interaction strength”.
